Reference: PMC10415144, “Structural insights into CodY activation and DNA recognition” (Nucleic Acids Research, 2021)

Experiments:
[1] = target: the molecule itself; test: mass photometry; Refeyn OneMP; 100 nM CodY, ligand-free, 20 mM Tris-HCl pH 8, 200 mM NaCl
[2] = target: the molecule itself; test: mass photometry + SEC-MALS; data not shown; EfCodY quadruple mutant in solution

B1: Enterococcus faecalis CodY (EfCodY), full length (natural protein)
chain: GAMATLLEKTRQVNELLQKNNLFDVQAELPYNKMAMILGDILESNAYIISSSGDLLGYTEKLDVNNARIKNMFKEKKFPQGYTEAVDMLKVTEANIPIDSDLTAFPFESRELYPFGLTTIVPLYGAGKRLGTIILARVEKSFNEDDLVLAEYSATVVGMQILYHQSRTIEAEVRSATAVQMAINTLSYSELKAVHAIFEALDGEEGRLTASSIADEIGITRSVIVNALRKLESAGIIESRSLGMKGTYLKVLNQQFIKELEK
notes: also called CodY from Ef
Q: With B1 as the protein, how does the “stoichiometry N” value [1] read?
A: 2

B2: EfCodY quadruple mutant (Tyr186, Arg238, Leu240 and Tyr246 replaced with Ala) (natural protein)
chain: GAMATLLEKTRQVNELLQKNNLFDVQAELPYNKMAMILGDILESNAYIISSSGDLLGYTEKLDVNNARIKNMFKEKKFPQGYTEAVDMLKVTEANIPIDSDLTAFPFESRELYPFGLTTIVPLYGAGKRLGTIILARVEKSFNEDDLVLAEYSATVVGMQILYHQSRTIEAEVRSATAVQMAINTLSASELKAVHAIFEALDGEEGRLTASSIADEIGITRSVIVNALRKLESAGIIESASAGMKGTALKVLNQQFIKELEK
notes: also called EfCodY-mutant
Q: B2 was tested. Which “stoichiometry N” value [2] did it give?
A: 2
